The results in this text go back to patent US20250101086A1 (RESEARCH FOUNDATION OF THE CITY UNIVERSITY OF NEW YORK, published 2025).

The term EC50 denotes the concentration that produces a half-maximal response.

The target in assay [1] is T1, IR6 peptide (Borrelia burgdorferi strain B31, biotin-labeled on the N terminus).
T1 construct: Synthetic peptide based on VlsE of strain B31 (GenBank U76405); also called invariant region 6
T1 peptide: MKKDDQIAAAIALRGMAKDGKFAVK
Kind of assay: ELISA of purified rMAb on coated peptide. Background: An ELISA detects its analyte on a solid surface through an enzyme-linked reagent.

The target of assay [2] is T2, recombinant VlsE protein (of strain B31) (Borrelia burgdorferi strain B31).
T2 construct: domain: vlsE cassette region (including the IR1 through VR6 regions); Preparation of about 65% purity; Used as immunogen, as ELISA antigen and on beads; also called VISE; recombinant B31 VlsE
Briefly: titration on VlsE, given as ED50; method not given.

For assay [3], the target named is T3, IR4 peptide (Borrelia burgdorferi strain B31, biotin-labeled on the N terminus).
T3 construct: also called invariant region 4
T3 peptide: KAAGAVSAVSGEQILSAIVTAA
Kind of assay: not given; it says that supporting data are given elsewhere in the disclosure (ELISA).

B1: 1D11 recombinant monoclonal antibody (re-cloned from the second most abundant VH and VL sequences) (antibody, V domains shown)
VH: QSLVESGGGLVQPEGSLTLTCKASGFSFSSGYDMCWVRQAPGKGLEYIACIDAGDDITHYASWVKGRFTVSKTSSTTVTLQLNSLTVADTATYFCGRFWDLWGPGTLVTVSS
VL: SVLTQTPSPVSAAVGGTVTINCQSSQSVYDSTWLGWYQQKPGQPPKLLIYKASNLASGVPSRFKGSGSGTHFTLTISDLECDDAATYYCVGGYSGSVDNWAFGGGTEVVVK
notes: Rabbit recombinant monoclonal IgG; the rabbit constant regions are cited to the literature; The variable fragments were cloned into pcDNA3.4 and expressed in mouse cells; also called ID11; new rMAb
In the case of B1, the binding result in assay [1] was “binds”. For the same molecule, the EC50 in assay [2] was 0.0109 µg/mL.

B2: antibody with VH SEQ ID NO: 3 and VL SEQ ID NO: 4 (antibody, V domains shown)
VH: QSLEESGGGLFKPTDTLTLTCTVSGIDLSSYAMIWVRQAPGKGLEWIGYIWSSGRIWYASWAKGRFTISRTSTTVDLKLASPTTEDTATYFCARLWDIWGPGTLVTVSS
VL: AQVLTQTPSSVSAAVGGTVTISCQASQSLYNGVNLAWYQQKPGQPPKLLIFGASNLESGVSSRFRGSGSGTQFTLTISGVQCDDAATYYCLGEFSCSSADCLAFGGGTEVVVK
Consider B2, for which the binding result in assay [3] is listed as “binds”.

B3: antibody with VH SEQ ID NO: 5 and VL SEQ ID NO: 6 (antibody, V domains shown)
VH: QSVEESGGRLVTPGTPLTLTCTVSGFPLSSYSMAWVRQAPGKGLEYIGFINTDGSAYYASWAKGRITISKTSTTVELKITSPTTEDTATYFCGTGNIWGPGTLVTVSS
VL: AQVLTQTPSSVSAAVGGTVTINCQASQSVSNNNVLAWFQQKPGQPPKRLIYSALTLDSGVPSRFKGSGSGTHFTLTISGVQCDDAATYYCAGGYDCSSNDCIAFGGGTEVVVK
Take B3: the binding result in assay [3] is “binds”.

B4: antibody with VH SEQ ID NO: 7 and VL SEQ ID NO: 8 (antibody, V domains shown)
VH: QSVEESGGRLVTPGTPLTLTCTVSGFSLSSYSMGWVRQAPGKGLEYIGMIISNNSTYYASWAKGRITISKTSTTVELKITSPTTEDTATYFCGTGNIWGPGTLVTVSS
VL: AQVLTQTPASVSAAVGGTVTINCQASQSTSNNNALAWFQQKPGQPPKRLIYSALTLDSGVPSRFKGSGSGTHFTLTISGVQCDDAATYYCAGGYDCSSNDCITFGGGTEVVVK
Take B4: the binding result in assay [3] is “binds”.
